Experimental findings from the supplement of paper PMC12855868 are described below.

First the molecules themselves.
B1: library; numbered along this chain (parent)
chain: MAAAGGARLLRAASAVLGGPAGRWLHHAGSRAGSSGLLRNRGPGGSAEASRSLSVSARARSSSEDKITVHFINRDGETLTTKGKVGDSLLDVVVENNLDIDGFGACEGTLACSTCHLIFEDHIYEKLDAITDEENDMLDLAYGLTDRSRLGCQICLTKSMDNMTVRVPETVADARQSIDVGKTS

The variants in the data set derive from B1. In words: scaled log2 fold change in cell abundance, elesclomol vs control (0 = silent mean, 1 = nonsense mean) (scaled log2 ratio); higher = higher viability under elesclomol (loss of FDX1 cuproptosis function). The note with it: glucose 10 mM.
Setting [1] is: with ABC1 FDX1 KO, elesclomol 5 nM, 14 days.
The mark [2] stands for this setting: with HEK293T FDX1 KO, elesclomol 40 nM, 11 days.
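Note: variant abundance is its share of total variant reads in each endpoint sample, from next-generation sequencing of the integrated ORF PCR-amplified out of genomic DNA.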

For MAAAGGARLLRAASAVLGGPAGRWLHHAGSRAGSSGLLRNRGPGGSAEASRSLSVSARARSSSEDKITVHFINRDGETLTTKGKVGDSLLDVVVENNLDIDGFGACEGTLACSTCHLIFEDHIYEKLDAITDEENDMLDLAYGLTDRSRLGCQICLTKSMDNMTVRVPETVADARQSISVGKTS, the “scaled log2 fold change” value was determined as 0.558 under setting [1] and 0.929 under setting [2].
Turning to MAAAGGARLLRAASAVLGGPAGRWLHHAGSRAGSSGLLRNRGPGGSAEASRSLSVSARARSSSEDKITVHFINRDGETLTTKGKVGDSLLDVVVENNLDIDGFGACEGTLACSTCHLIFEDHIYEKLDAITDEENDMLDLAYGLTDRSRLGCQICLTKSMDNMTVRVPETVADARQSIWVGKTS, under setting [1], the “scaled log2 fold change” value worked out at 0.235.
As to MAAAGGARLLRAASAVLGGPAGRWLHHAGSRAGSSGLLRNRGPGGSAEASRSLSVSARARSSSEDKITVHFINRDGETLTTKGKVGDSLLDVVVENNLDIDGFGACEGTLACSTCHLIFEDHIYEKLDAITDEENDMLDLAYGLTDRSRLGCQICLTKSMDNMTVRVPETVADARQSITVGKTS, the “scaled log2 fold change” value under setting [1] came to 0.106 and the “scaled log2 fold change” value under setting [2] is 0.00101.
Consider MAAAGGARLLRAASAVLGGPAGRWLHHAGSRAGSSGLLRNRGPGGSAEASRSLSVSARARSSSEDKITVHFINRDGETLTTKGKVGDSLLDVVVENNLDIDGFGACEGTLACSTCHLIFEDHIYEKLDAITDEENDMLDLAYGLTDRSRLGCQICLTKSMDNMTVRVPETVADARQSIYVGKTS, for which the “scaled log2 fold change” value under setting [1] was 0.0967 and the “scaled log2 fold change” value under setting [2] was -0.339.
On to MAAAGGARLLRAASAVLGGPAGRWLHHAGSRAGSSGLLRNRGPGGSAEASRSLSVSARARSSSEDKITVHFINRDGETLTTKGKVGDSLLDVVVENNLDIDGFGACEGTLACSTCHLIFEDHIYEKLDAITDEENDMLDLAYGLTDRSRLGCQICLTKSMDNMTVRVPETVADARQSIVVGKTS, for which the “scaled log2 fold change” value was -0.0481 under setting [1] and 0.172 under setting [2].
The corresponding values for MAAAGGARLLRAASAVLGGPAGRWLHHAGSRAGSSGLLRNRGPGGSAEASRSLSVSARARSSSEDKITVHFINRDGETLTTKGKVGDSLLDVVVENNLDIDGFGACEGTLACSTCHLIFEDHIYEKLDAITDEENDMLDLAYGLTDRSRLGCQICLTKSMDNMTVRVPETVADARQSIDCGKTS are 0.235 and 0.216.
As to MAAAGGARLLRAASAVLGGPAGRWLHHAGSRAGSSGLLRNRGPGGSAEASRSLSVSARARSSSEDKITVHFINRDGETLTTKGKVGDSLLDVVVENNLDIDGFGACEGTLACSTCHLIFEDHIYEKLDAITDEENDMLDLAYGLTDRSRLGCQICLTKSMDNMTVRVPETVADARQSIDAGKTS, the “scaled log2 fold change” value is -0.00321 under setting [1] and 2.72 under setting [2].
Take MAAAGGARLLRAASAVLGGPAGRWLHHAGSRAGSSGLLRNRGPGGSAEASRSLSVSARARSSSEDKITVHFINRDGETLTTKGKVGDSLLDVVVENNLDIDGFGACEGTLACSTCHLIFEDHIYEKLDAITDEENDMLDLAYGLTDRSRLGCQICLTKSMDNMTVRVPETVADARQSIDDGKTS: the “scaled log2 fold change” value under setting [1] turned out to be 0.293.
As for MAAAGGARLLRAASAVLGGPAGRWLHHAGSRAGSSGLLRNRGPGGSAEASRSLSVSARARSSSEDKITVHFINRDGETLTTKGKVGDSLLDVVVENNLDIDGFGACEGTLACSTCHLIFEDHIYEKLDAITDEENDMLDLAYGLTDRSRLGCQICLTKSMDNMTVRVPETVADARQSIDEGKTS, the “scaled log2 fold change” value is, setting by setting: under setting [1], -0.352; under setting [2], -0.141.
